Assay results as given in the supplement of paper PMC7877785.
± gives the uncertainty stated by the source.

Test: self-splicing fitness, log relative to wild type (ln ratio); higher = more splicing; Tetrahymena group I intron in knt gene, E. coli kanamycin selection, DiMSum; sequences stand for … in CUCUCU…GGAGGGAAAAGUUAUCAGGCAUGCACCUGGUAGCUAGUCUUUAAACCAAUAGAUUGCAUCGGUUUAAAAGGCAAGACCGUCAAAUUGCGGGAAAGGGGUCAACAGCCGUUCAGUACCAAGUCUCAGGGGAAACUUUGAGAUGGCCUUGCAAAGGGUAUGGUAAUAAGCUGACGGACAUGGUCCUAACCACGCAGCCAAGUCCUAAGUCAACAGAUCUUCUGUUGAUAUGGAUGCAGUUCACAGACUAAAUGUCGGUCGGGGAAGAUGUAUUCUUCUCAUAAGAUAUAGUCGGACCUCUCCUUAAUGGGAGCUAGCGGAUGAAGUGAUGCAACACUGGAGCCGCUGGGAACUAAUUUGUAUGCGAAAGUAUAUUGAUUAGUUUUGGAGUACUCGUGGUCG
Outline: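 A randomised library covering all eight P1ex-region intron nucleotides was built with the intron in the knt kanamycin-resistance gene on pET-22b(+) and held in E. coli BL21(DE3). Cells were grown overnight at 37°C or 30°C on LB agar, with or without 25 μg/mL kanamycin, plus 100 μg/mL carbenicillin, 50 μM IPTG and 0.2% rhamnose, and pooled colonies were amplicon-sequenced on an Illumina HiSeq 2500. DiMSum fitness is the error-weighted combination of wild-type-normalised replicate fold changes, kanamycin versus none.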

With CAGGAGCAAUAUUACGGCCA the “self-splicing fitness (ln)” value (37 °C) was 0.122 ± 0.3.
With CGUAAGCAAUAUUACGCACC the “self-splicing fitness (ln)” value (37 °C) was -0.957 ± 0.39.
In the case of CAGCAGCAAUAUUACGGCAG, the “self-splicing fitness (ln)” value (30 °C) is reported as -0.983 ± 0.079 and the “self-splicing fitness (ln)” value (37 °C) is reported as -0.261 ± 0.11.
In the case of AUCAAGCAAUAUUACGCGGC, the “self-splicing fitness (ln)” value (30 °C) is reported as -3.39 ± 0.33 and the “self-splicing fitness (ln)” value (37 °C) is reported as -1.98 ± 0.29.
With AGCCAGCAAUAUUACGGGAU the “self-splicing fitness (ln)” value (30 °C) was -4 ± 0.17 and the “self-splicing fitness (ln)” value (37 °C) was -2.05 ± 0.12.
With GAUGAGCAAUAUUACGCCUU the “self-splicing fitness (ln)” value (30 °C) was -1.7 ± 0.24.
In the case of ACUUAGCAAUAUUACGAGUG, the “self-splicing fitness (ln)” value (30 °C) is reported as -1.17 ± 0.12 and the “self-splicing fitness (ln)” value (37 °C) is reported as -1.58 ± 0.13.
For AGCUAGCAAUAUUACGCCCA, the “self-splicing fitness (ln)” value (30 °C) was -1.5 ± 0.21 and the “self-splicing fitness (ln)” value (37 °C) was -0.441 ± 0.35.
For CUGUAGCAAUAUUACGAGUG, the “self-splicing fitness (ln)” value (30 °C) was -0.807 ± 0.07 and the “self-splicing fitness (ln)” value (37 °C) was 0.314 ± 0.11.
With UGAUAGCAAUAUUACGGCGA the “self-splicing fitness (ln)” value (30 °C) was -0.745 ± 0.093 and the “self-splicing fitness (ln)” value (37 °C) was -0.477 ± 0.13.
With GCUGAGCAAUAUUACGGACA the “self-splicing fitness (ln)” value (30 °C) was -2.53 ± 0.2 and the “self-splicing fitness (ln)” value (37 °C) was -0.488 ± 0.17.
For CGUUAGCAAUAUUACGGCAA, the “self-splicing fitness (ln)” value (30 °C) was -2.91 ± 0.2 and the “self-splicing fitness (ln)” value (37 °C) was -1.1 ± 0.15.
In the case of CAGUAGCAAUAUUACGAUAC, the “self-splicing fitness (ln)” value (30 °C) is reported as -3.55 ± 0.36 and the “self-splicing fitness (ln)” value (37 °C) is reported as -2.51 ± 0.41.
For UCUCAGCAAUAUUACGCAUG, the “self-splicing fitness (ln)” value (37 °C) was -1.04 ± 0.45.
For AGUCAGCAAUAUUACGGUAC, the “self-splicing fitness (ln)” value (30 °C) was -3 ± 0.16 and the “self-splicing fitness (ln)” value (37 °C) was -1.88 ± 0.21.
With GUGAAGCAAUAUUACGACUG the “self-splicing fitness (ln)” value (30 °C) was -1.37 ± 0.09 and the “self-splicing fitness (ln)” value (37 °C) was -0.924 ± 0.14.
For CAUGAGCAAUAUUACGAAUC, the “self-splicing fitness (ln)” value (37 °C) was -2.57 ± 0.42.
With AACCAGCAAUAUUACGUACU the “self-splicing fitness (ln)” value (30 °C) was 0.015 ± 0.053 and the “self-splicing fitness (ln)” value (37 °C) was 0.248 ± 0.066.
For UUGGAGCAAUAUUACGUAGU, the “self-splicing fitness (ln)” value (30 °C) was -1.95 ± 0.25 and the “self-splicing fitness (ln)” value (37 °C) was -2.6 ± 0.49.
With CGCGAGCAAUAUUACGCCCU the “self-splicing fitness (ln)” value (30 °C) was -3.1 ± 0.29 and the “self-splicing fitness (ln)” value (37 °C) was -2.5 ± 0.39.
In the case of UUCAAGCAAUAUUACGACGU, the “self-splicing fitness (ln)” value (30 °C) is reported as -0.831 ± 0.094 and the “self-splicing fitness (ln)” value (37 °C) is reported as 0.325 ± 0.13.
In the case of ACUAAGCAAUAUUACGUUGU, the “self-splicing fitness (ln)” value (30 °C) is reported as -3.58 ± 0.16 and the “self-splicing fitness (ln)” value (37 °C) is reported as -2.78 ± 0.18.
For CCUGAGCAAUAUUACGGCGG, the “self-splicing fitness (ln)” value (30 °C) was -2.37 ± 0.13 and the “self-splicing fitness (ln)” value (37 °C) was -1.92 ± 0.17.
In the case of ACGGAGCAAUAUUACGAAUU, the “self-splicing fitness (ln)” value (30 °C) is reported as -3.52 ± 0.26 and the “self-splicing fitness (ln)” value (37 °C) is reported as -2.5 ± 0.27.
With GUUAAGCAAUAUUACGGUAG the “self-splicing fitness (ln)” value (30 °C) was -2.87 ± 0.17 and the “self-splicing fitness (ln)” value (37 °C) was -1.69 ± 0.17.
For GGGGAGCAAUAUUACGACCA, the “self-splicing fitness (ln)” value (30 °C) was -0.254 ± 0.14 and the “self-splicing fitness (ln)” value (37 °C) was 0.709 ± 0.23.
With AGUCAGCAAUAUUACGUCUU the “self-splicing fitness (ln)” value (30 °C) was -0.994 ± 0.095 and the “self-splicing fitness (ln)” value (37 °C) was -0.306 ± 0.11.
For AUAGAGCAAUAUUACGACGC, the “self-splicing fitness (ln)” value (30 °C) was -0.187 ± 0.14 and the “self-splicing fitness (ln)” value (37 °C) was -0.765 ± 0.17.
For ACAAAGCAAUAUUACGCUGA, the “self-splicing fitness (ln)” value (30 °C) was -2.65 ± 0.2 and the “self-splicing fitness (ln)” value (37 °C) was -1.14 ± 0.15.
With ACCUAGCAAUAUUACGGUAC the “self-splicing fitness (ln)” value (30 °C) was -3.75 ± 0.37 and the “self-splicing fitness (ln)” value (37 °C) was -2.76 ± 0.26.
In the case of GAACAGCAAUAUUACGGUCC, the “self-splicing fitness (ln)” value (30 °C) is reported as -4.14 ± 0.25 and the “self-splicing fitness (ln)” value (37 °C) is reported as -0.683 ± 0.13.
In the case of UUAUAGCAAUAUUACGCGCG, the “self-splicing fitness (ln)” value (30 °C) is reported as 0.0634 ± 0.16 and the “self-splicing fitness (ln)” value (37 °C) is reported as -0.475 ± 0.18.
In the case of GACUAGCAAUAUUACGUGAU, the “self-splicing fitness (ln)” value (30 °C) is reported as -1.83 ± 0.078 and the “self-splicing fitness (ln)” value (37 °C) is reported as -0.383 ± 0.087.
In the case of AUGGAGCAAUAUUACGUGUA, the “self-splicing fitness (ln)” value (30 °C) is reported as -3.43 ± 0.26 and the “self-splicing fitness (ln)” value (37 °C) is reported as -3.04 ± 0.23.
For UGUCAGCAAUAUUACGGCCG, the “self-splicing fitness (ln)” value (30 °C) was -0.69 ± 0.14 and the “self-splicing fitness (ln)” value (37 °C) was -0.658 ± 0.17.
In the case of UAACAGCAAUAUUACGAUUC, the “self-splicing fitness (ln)” value (30 °C) is reported as -1.68 ± 0.1 and the “self-splicing fitness (ln)” value (37 °C) is reported as -1.01 ± 0.12.
In the case of UCGUAGCAAUAUUACGCCCA, the “self-splicing fitness (ln)” value (30 °C) is reported as -0.576 ± 0.14 and the “self-splicing fitness (ln)” value (37 °C) is reported as 0.129 ± 0.19.
In the case of GUAAAGCAAUAUUACGUGAG, the “self-splicing fitness (ln)” value (30 °C) is reported as -2.03 ± 0.084 and the “self-splicing fitness (ln)” value (37 °C) is reported as -0.98 ± 0.1.
With AAAUAGCAAUAUUACGCGGU the “self-splicing fitness (ln)” value (30 °C) was -2.71 ± 0.18 and the “self-splicing fitness (ln)” value (37 °C) was -1.93 ± 0.2.
